Target: T1, CyaA-hemolysin (CyaA-Hly), 126-kDa truncated fragment of Bordetella pertussis adenylate cyclase-hemolysin … (Bordetella pertussis, strain not named; …, UniProt P0DKX7)
T1 construct: also called CyaA-Hly toxin; His-tagged CyaA-Hly domain
Test: ELISA

T1 sequence (P0DKX7 whole entry, looked up, the tested form may be a part): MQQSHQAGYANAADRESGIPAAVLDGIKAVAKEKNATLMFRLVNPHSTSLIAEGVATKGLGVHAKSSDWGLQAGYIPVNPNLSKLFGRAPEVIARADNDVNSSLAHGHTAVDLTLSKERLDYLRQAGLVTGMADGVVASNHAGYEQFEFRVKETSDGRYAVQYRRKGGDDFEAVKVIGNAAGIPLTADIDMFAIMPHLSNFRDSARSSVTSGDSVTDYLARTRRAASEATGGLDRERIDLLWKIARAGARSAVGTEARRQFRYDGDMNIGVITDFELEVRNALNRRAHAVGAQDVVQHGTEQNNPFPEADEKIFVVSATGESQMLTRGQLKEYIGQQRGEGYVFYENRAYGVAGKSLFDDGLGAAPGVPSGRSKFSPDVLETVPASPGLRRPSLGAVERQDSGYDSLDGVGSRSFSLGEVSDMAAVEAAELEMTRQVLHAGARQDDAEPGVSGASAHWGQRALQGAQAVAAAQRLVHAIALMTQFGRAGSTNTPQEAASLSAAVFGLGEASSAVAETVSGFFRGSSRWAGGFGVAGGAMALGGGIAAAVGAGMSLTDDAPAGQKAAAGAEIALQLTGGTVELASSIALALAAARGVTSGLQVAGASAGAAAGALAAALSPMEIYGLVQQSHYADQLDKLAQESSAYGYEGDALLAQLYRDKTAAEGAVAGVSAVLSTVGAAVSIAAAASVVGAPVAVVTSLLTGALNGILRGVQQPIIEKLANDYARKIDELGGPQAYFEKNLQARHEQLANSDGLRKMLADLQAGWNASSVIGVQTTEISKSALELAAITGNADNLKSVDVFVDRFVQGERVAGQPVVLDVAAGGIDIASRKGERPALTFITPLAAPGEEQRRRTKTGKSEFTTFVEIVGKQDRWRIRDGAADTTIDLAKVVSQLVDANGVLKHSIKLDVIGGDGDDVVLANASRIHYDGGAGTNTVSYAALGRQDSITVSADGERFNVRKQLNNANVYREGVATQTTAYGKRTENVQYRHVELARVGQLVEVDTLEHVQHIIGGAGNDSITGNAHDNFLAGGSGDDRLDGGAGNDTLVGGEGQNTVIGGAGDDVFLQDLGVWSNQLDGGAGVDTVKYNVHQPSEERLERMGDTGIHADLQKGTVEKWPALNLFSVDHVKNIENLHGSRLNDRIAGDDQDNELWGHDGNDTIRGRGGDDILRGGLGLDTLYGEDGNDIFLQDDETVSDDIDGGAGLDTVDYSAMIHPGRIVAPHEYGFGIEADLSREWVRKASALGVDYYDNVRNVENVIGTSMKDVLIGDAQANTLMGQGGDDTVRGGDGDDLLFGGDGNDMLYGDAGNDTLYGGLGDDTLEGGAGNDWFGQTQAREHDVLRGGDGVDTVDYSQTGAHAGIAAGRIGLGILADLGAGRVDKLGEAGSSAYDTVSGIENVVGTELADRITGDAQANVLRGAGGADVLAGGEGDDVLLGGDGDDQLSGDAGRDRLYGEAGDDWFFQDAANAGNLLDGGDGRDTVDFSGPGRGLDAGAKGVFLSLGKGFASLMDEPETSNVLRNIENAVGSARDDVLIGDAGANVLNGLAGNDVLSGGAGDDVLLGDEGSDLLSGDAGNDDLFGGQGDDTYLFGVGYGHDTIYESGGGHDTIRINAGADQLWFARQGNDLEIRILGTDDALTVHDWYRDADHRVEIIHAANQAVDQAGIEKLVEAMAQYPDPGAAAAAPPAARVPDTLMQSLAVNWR

Row | Binder | binding result (one partner purified) | binding result (both partners purified)
1 | VHH2, E-tagged (clone no. 2, from the humanized-camel VH/VHH phage-display library) (VHH, source: E. coli HB2151, phagemid pCANTAB5E, IPTG-induced, in lysate; not shown: E tag, C-terminal, kept) VHH: VQLVESGGGSVQAGGSLRLSCTVSGYTDNRYCMGWFRQAPGKEREGVAGINDFGGTTYYVDSVKGRFTISQNNAKNTVYLQMNSLKPEDTAIYYCAIAPRIWGSICSPGTQYNYWGQGTMVTVSS | binds | –
2 | VHH37, His-tagged, purified and refolded (VHH, not shown: His6, C-terminal, kept) VHH: VQLVESGGGSVQAGGSLRLSCTASGFTFDDFDMGWYHQAPGNECELVSTISNAGHTYYADSVKGRFAISRDNAKNMVYLQMNNLKPEDTAMYYCAAVGALLGFPLVLARPRGGYNYWGQGTMVTVSS | – | binds
3 | VHH37, E-tagged (clone no. 37, from the humanized-camel VH/VHH phage-display library) (VHH, source: E. coli HB2151, phagemid pCANTAB5E, IPTG-induced, in lysate; not shown: E tag, C-terminal, kept) VHH: VQLVESGGGSVQAGGSLRLSCTASGFTFDDFDMGWYHQAPGNECELVSTISNAGHTYYADSVKGRFAISRDNAKNMVYLQMNNLKPEDTAMYYCAAVGALLGFPLVLARPRGGYNYWGQGTMVTVSS | binds | –
4 | VHH2, His-tagged, purified and refolded (VHH, not shown: His6, C-terminal, kept) VHH: VQLVESGGGSVQAGGSLRLSCTVSGYTDNRYCMGWFRQAPGKEREGVAGINDFGGTTYYVDSVKGRFTISQNNAKNTVYLQMNSLKPEDTAIYYCAIAPRIWGSICSPGTQYNYWGQGTMVTVSS | – | binds

Reference: paper PMC4848625, “Structural Characterization of Humanized Nanobodies with Neutralizing Activity against the Bordetella pertussis CyaA-Hemolysin: Implications for a Potential Epitope of Toxin-Protective Antigen” (Toxins, 2016)
